Source: patent US20250035612A1 (NEURIMMUNE, published 2025)
Ends that are not written are not given here. * marks the point of attachment. Biotin = O=C1N[C@H]2[C@H](CS[C@H]2CCCCC(=O)*)N1; Ahx = NCCCCCC(=O)O

Tests used:
[1] = target: fluorescently labeled misfolded TTR aggregates of the monomeric F87M/L110M-TTR mutant (mis.TTR-488) (UniProt P02766 21-147); test: cell-based or functional assay
[2] = target: T1, cyclic peptide TTR34-54cyc (cyclized via disulfide bridge between two cysteine residues within the poly-glycine stretch); test: cell-based or functional assay
T1 sequence (peptide, as listed by the source): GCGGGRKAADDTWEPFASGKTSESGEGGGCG

Biotin.TTR34-54cyc [3] = target: T2, Biotin.TTR34-54cyc (N-terminal Biotin-(Ahx): amino hexanoic acid spacer between the N-terminus and the biotin residue; cyclized via disulfide bridge between the two cysteine residues); test: ELISA (ELISA-2), plate coated with Biotin.TTR34-54cyc at 10 µg/ml, antibody titrated
T2 construct: Biotinylated form of TTR34-54cyc; also called biotinylated TTR34-54cyc
T2 sequence (peptide, as listed by the source): as above
Procedure: (§1) In particular, 96-well microplates were coated for 1 hour at 37° C. with TTR34-54cyc, TTR40-49, Biotin. TTR40-449, and mis-WT-TTR (FLISA-1) and with TTR34-54cyc, Biotin. TTR34-54cyc, TTR40-49, Biotin. TTR40-449, and mis-WT-TTR (ELISA-2), respectively, wherein each target antigen has been diluted to a concentration of 10 μg/ml in PBS buffer pH 7.4. Non-specific binding sites were blocked for 1 hour at room temperature (RT) with a blocking buffer containing 2% bovine serum albumin (BSA) and 0.1% tween-20 in PBS buffer. […] Binding was determined using an anti-human IgG antibody conjugated with horseradish peroxidase (HRP), followed by measurement of HRP activity in a standard colorimetric assay (ThermoFisher Scientific Inc., Waltham, Massachusetts, USA). Data were analyzed with the Prism software from GraphPad. ECso values were estimated using non-linear regression of individual data points using log (agonist) versus response model with variable slope. Data fitting was performed with the least square regression method.

[4] = target: T1, cyclic peptide TTR34-54cyc; test: ELISA-1, coated TTR34-54cyc at 10 µg/ml, anti-human IgG-HRP detection
Procedure: as §1

[5] = target: T1, cyclic peptide TTR34-54cyc; test: ELISA-2, coated TTR34-54cyc at 10 µg/ml, anti-human IgG-HRP detection
Procedure: as §1

[6] = target: T1, cyclic peptide TTR34-54cyc; test: cell-based or functional assay; remark: listed apart in the source
Biotin.TTR34-54cyc [7] = target: T2, Biotin.TTR34-54cyc; test: ELISA, coated peptide at 10 µg/ml, reference mis.WT-TTR
Procedure: as §1

[8] = target: T1, cyclic peptide TTR34-54cyc; test: as above
Procedure: as §1

Biotin.TTR40-49 = target: T3, Biotin.TTR40-49; test: ELISA-1 and ELISA-2, peptide coated at 10 µg/ml, anti-human IgG-HRP detection
T3 construct: also called Biotin; TTR40-449; biotinylated TTR peptide TTR40-49
T3 peptide: {Biotin-Ahx}-TWEPFASGKT
Procedure: as §1

TTR peptide TTR40-49 = target: T4, TTR peptide TTR40-49; test: as above
T4 peptide: H-TWEPFASGKT-OH
Procedure: as §1

EC50 of the mis.TTR-488 phagocytosis dose-response in THP1 cells, 0.7x_NI-301.37F1_3 (nominal concentration; sample at 0.7x of the reference) [1]: 1500 pM
EC50 of the mis.TTR-488 phagocytosis dose-response in THP1 cells, 1x_NI-301.37F1_3 [1]: 1200 pM
EC50 of the mis.TTR-488 phagocytosis dose-response in THP1 cells, NI-301.37F1_W1 GMP DS [1]: 540 pM
EC50 of the mis.TTR-488 phagocytosis dose-response in THP1 cells, NI-301.37F1_W1 non-GMP DP [1]: 920 pM
EC50 of the FcγR1 ADCP reporter assay, first experiment (FIG. 11); plate coated with 3 µg/mL TTR34-54cyc, NI-301.37F1 RS dilutions 500-0.4 ng/ml [2]: 0.0198 µg/mL
EC50 (read off the curve) (Biotin.TTR34-54cyc [3]): ~600 pM
EC50 [4]: 27 pM
EC50 [5]: 660 pM
EC50 (ng/mL) of the FcγR1 ADCP reporter assay, plate coated with TTR34-54cyc; reference sample (RS) 100%, run with the 50% test sample [6]: 19.8 ng/mL
EC50 (ng/mL) of the FcγR1 ADCP reporter assay, plate coated with TTR34-54cyc; reference sample (RS) 100%, run with the 70% test sample [6]: 19.8 ng/mL
EC50 (ng/mL) of the FcγR1 ADCP reporter assay, plate coated with TTR34-54cyc; reference sample (RS) 100%, run with the 130% test sample [6]: 17.6 ng/mL
EC50 (ng/mL) of the FcγR1 ADCP reporter assay, plate coated with TTR34-54cyc; reference sample (RS) 100%, run with the 150% test sample [6]: 19.3 ng/mL
EC50 (ng/mL) of the FcγR1 ADCP reporter assay, plate coated with TTR34-54cyc; test sample 50% (nominal concentration) [6]: 39 ng/mL
EC50 (ng/mL) of the FcγR1 ADCP reporter assay, plate coated with TTR34-54cyc; test sample 70% (nominal concentration) [6]: 30.4 ng/mL
EC50 (ng/mL) of the FcγR1 ADCP reporter assay, plate coated with TTR34-54cyc; test sample 130% (nominal concentration) [6]: 13.6 ng/mL
EC50 (ng/mL) of the FcγR1 ADCP reporter assay, plate coated with TTR34-54cyc; test sample 150% (nominal concentration) [6]: 13.5 ng/mL
fold stronger binding than to mis. WT-TTR (Biotin.TTR34-54cyc [7]): ~10 fold
fold stronger binding than to mis. WT-TTR [8]: ~10 fold
binding result (Biotin.TTR40-49): no binding
binding result (TTR peptide TTR40-49): no binding
B1: anti-TTR antibody NI-301.37F1 (antibody, V domains shown)
VH: QVQLQESGPGLVKPSETLSLTCSVSGGSIISRSSYWGWIRQPPGKGLEWIGGIYHSGNTYDNPSLKSRLTMSVDTSKNQFSLNLRSVTAADTAVYYCARIVPGGDAFDIWGQGTMVTVSS
VL: DIQMTQSPSSLSASVGDRVTIACRASQSVGTYLNWYQQKRGKAPKLLIFAASSLQSGVPSRFSGSGSGTDFTLTISSLQPEDFATYYCQQSYSSPPTFGQGTKVEIK
notes: detected with anti-human IgG; also called 37F1_3
